According to patent publication US20150086562A1 (BIOATLA, published 2015):

T1: CD22 protein expressed on the surface of Daudi cells (human, UniProt P20273 20-847)
T1 construct: whole, on cells; also called human CD22; cell surface CD22
T1 sequence (looked up): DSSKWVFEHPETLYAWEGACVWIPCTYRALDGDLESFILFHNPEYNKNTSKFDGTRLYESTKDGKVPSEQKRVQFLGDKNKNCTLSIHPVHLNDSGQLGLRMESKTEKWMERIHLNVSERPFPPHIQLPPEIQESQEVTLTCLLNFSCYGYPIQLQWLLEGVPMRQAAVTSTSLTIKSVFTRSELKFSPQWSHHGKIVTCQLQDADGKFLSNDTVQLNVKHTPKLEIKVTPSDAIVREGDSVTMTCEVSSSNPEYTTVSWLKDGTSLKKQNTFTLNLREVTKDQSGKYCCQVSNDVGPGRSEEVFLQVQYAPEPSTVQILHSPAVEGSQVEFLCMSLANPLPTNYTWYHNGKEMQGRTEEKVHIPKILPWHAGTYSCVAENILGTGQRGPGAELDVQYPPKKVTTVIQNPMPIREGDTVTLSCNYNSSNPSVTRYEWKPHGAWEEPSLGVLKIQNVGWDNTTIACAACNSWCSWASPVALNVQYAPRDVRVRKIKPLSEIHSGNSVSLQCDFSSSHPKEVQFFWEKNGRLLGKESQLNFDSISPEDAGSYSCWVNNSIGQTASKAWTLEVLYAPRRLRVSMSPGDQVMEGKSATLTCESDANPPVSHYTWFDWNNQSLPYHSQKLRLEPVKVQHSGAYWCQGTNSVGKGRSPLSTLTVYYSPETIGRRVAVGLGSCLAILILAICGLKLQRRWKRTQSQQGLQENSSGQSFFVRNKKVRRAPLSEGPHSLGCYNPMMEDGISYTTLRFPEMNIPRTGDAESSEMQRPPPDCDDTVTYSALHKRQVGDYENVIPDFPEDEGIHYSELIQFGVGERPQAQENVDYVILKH


How the values were obtained:
[1] = target: T1, CD22 protein expressed on the surface …; assay: Quantitative confocal immunofluorescence of directly FITC-labelled antibody (5 ug/ml, 45 min on ice) on Daudi cells. paragraph 243 calls these 'RMF surface binding values'.
Method: (§1) Selected antiCD22 selected anti-CD22 Mab clones VM1000, VM1001, VM1002, VM1003, VM1004, VM1005, VM1006, VM1007, VM1008, VM1009, VM1010, VM1011, VM1012, VM1013, VM1014, and VM1015 of the invention were directly conjugated to F1TC using the Zenon labeling complex (Molecular Probes) using the manufacturer's recommended procedures. Approximately 1×10e7 Daudi cells were resuspended in PBS containing 5 ug/ml labeled anti-CD22 antibody and incubated for 45 minutes on ice. Cells then washed twice in PBS-FBS solution at 0 C. Cells were then incubated in RPMI 1640 media containing 10% FBS for varying periods at 37 C, harvested and washed in PBS at 0 C. The cells were then briefly fixed in 4% paraformaldehyde solution for 5 min at room temperature, then washed in PBS containing 0.05% Triton X-100. Cell pellets were collected by centrifugation and resupended in a minimal volume of FBS neat, and then applied to glass microscope slides. Prior to analysis, slides were treated with mounting fluid containing the nuclear stain DAPI, then coverslips were applied. Confocal images were recorded using an ACAS Ultima confocal microscope (Meridian Instruments, Inc., Okemos, Mich.) and represent 1-μm sections through the center of a focal plane using a 100× oil immersion objective.
(§2) The Anti-CD22 monoclonal antibodies selected clones VM1000, VM1001, VM1002, VM1003, VM1004, VM1005, VM1006, VM1007, VM1008, VM1009, VM1010, VM1011, VM1012, VM1013, VM1014, and VM1015 of the invention were analysed for their ability to be rapidly internalized into the intracellular compartment as judged by immunoflourescent signal on the cell surface versus the intracellular endo cytotic compartment. The antibodies of the invention were compared to BA006H, and humanized version of the murine monoclonal antibody LL2. In this example, FIG. 21A, the anti-CD22 antibodies of the invention bind to CD22 protein expressed on the surface of Daudi cells by approximately 20-fold compared to BA006H as judged by relative mean fluorescence (RMF), and are virtually completely internalized within the cell with 90 minutes, localizing predominantly to within the perinuclear golgi apparatus and associated lysozomes. Shown in FIG. 21B is a chart of the RMF surface binding values obtained in this manner for individual anti-CD22 antibodies of the invention.

[2] = target: T1, CD22 protein expressed on the surface …; assay: confocal immunofluorescence, FITC-labelled antibody on Daudi cells
Method: as §1, §2

[3] = target: T1, CD22 protein expressed on the surface …; assay: cell-based or functional assay

Binder	RMF (Daudi Internalization by Confocal) [1]	fold surface binding by relative mean fluorescence (RMF) compared to BA006H [2]	Daudi Internalization by FACS, % Shift [3]
VM1000 (antibody, V domains shown, Humanized antibody with human constant region; also called anti-CD22 Mab clone VM1000) VH: QVQLVQSGAEVKKPGASVKVSCKASGYVFTSYWLHWIRQSPSRGLEWLGYINPRNDYTEYNRIFKGRLTISKDTSKNQVVLTMTNMDPVDTATYYCARRGITTFYWGQG VL: EIVLTQSPATLSLSPGERATLSCKSSQSVLYSAVEKNYLAWYQQKPGKAPKLLIYWASTRERGVPSRFSGSGSGTDFTFTISSLQPEDIATYYCKQYLSSWTFGQG	~100 RMF	~20 fold	85.9%
VM1002 (antibody, V domains shown, Humanized antibody with human constant region; also called anti-CD22 Mab clone VM1002) VH: EVQLVQSGAEVKKPGESLRISCKGSGYVFTSYWLHWVRQAPGQGLEWMGYINPRNDYTEYNRIFKGRVTITADKSTSTAYMELSSLRSEDTAVYYCARRGITTFYWGQG VL: EIVLTQSPATLSLSPGERATLSCKSSQSVLYSAVEKNYLAWYQQKPGQAPRLLIYWASTRERGIPDRFSGSGSGTDFTLTISRLEPEDFAVYYCKQYLSSWTFGQG	~150 RMF	~20 fold	84.6%
VM1004 (antibody, V domains shown, Humanized antibody with human constant region; also called anti-CD22 Mab clone VM1004) VH: EVQLVQSGAEVKKPGATVKISCKVSGYVFTSYWLHWIRQSPSRGLEWLGYINPRNDYTEYNRIFKGRFVFSLDTSVSTAYLQICSLKAEDTAVYYCARRGITTFYWGQG VL: EIVLTQSPATLSLSPGERATLSCKSSQSVLYSAVEKNYLAWYQQKPGKAPKLLIYWASTRERGIPDRFSGSGSGTDFTLTISRLEPEDFAVYYCKQYLSSWTFGQG	~100 RMF	~20 fold	87.1%
VM1001 (antibody, V domains shown, Humanized antibody with human constant region; also called anti-CD22 Mab clone VM1001) VH: QVQLVQSGAEVKKPGASVKVSCKASGYVFTSYWLHWIRQSPSRGLEWLGYINPRNDYTEYNRIFKGRLTISKDTSKNQVVLTMTNMDPVDTATYYCARRGITTFYWGQG VL: EIVLTQSPATLSLSPGERATLSCKSSQSVLYSAVEKNYLAWYQQKPGQAPRLLIYWASTRERGIPDRFSGSGSGTDFTLTISRLEPEDFAVYYCKQYLSSWTFGQG	~100 RMF	~20 fold	86.4%

Continued, values first:

RMF (Daudi Internalization by Confocal) [1]	fold surface binding by relative mean fluorescence (RMF) compared to BA006H [2]	Daudi Internalization by FACS, % Shift [3]	Binder
~200 RMF	~20 fold	88.3%	VM1006 (antibody, V domains shown, Humanized antibody with human constant region; also called anti-CD22 Mab clone VM1006) VH: QVQLVQSGAEVKKPGASVKVSCKASGYVFTSYWLHWIRQSPSRGLEWLGYINPRNDYTEYNRIFKGRFVFSLDTSVSTAYLQICSLKAEDTAVYYCARRGITTFYWGQG VL: DIQMTQSPSSLSASVGDRVTITCKSSQSVLYSAVEKNYLAWYQQKPGKAPKLLIYWASTRERGIPDRFSGSGSGTDFTLTISRLEPEDFAVYYCKQYLSSWTFGQG
~200 RMF	~20 fold	85%	VM1007 (antibody, V domains shown, Humanized antibody with human constant region; also called anti-CD22 Mab clone VM1007) VH: QVQLVQSGAEVKKPGASVKVSCKASGYVFTSYWLHWVRQARGQRLEWIGYINPRNDYTEYNRIFKGRVTITADKSTSTAYMELSSLRSEDTAVYYCARRGITTFYWGQG VL: AIQLTQSPSSLSASVGDRVTITCKSSQSVLYSAVEKNYLAWYQQKPGKAPKLLIYWASTRERGVPSRFSGSGSGTDFTFTISSLEAEDAATYYCKQYLSSWTFGQG
~200 RMF	~20 fold	87.1%	VM1011 (antibody, V domains shown, Humanized antibody with human constant region; also called anti-CD22 Mab clone VM1011) VH: QVQLQESGPGLVKPSQTLSLTCTVSGYVFTSYWLHWIRQPPGKGLEWIGYINPRNDYTEYNRIFKGRVTITADKSTSTAYMELSSLRSEDTAVYYCARRGITTFYWGQG VL: EIVLTQSPATLSLSPGERATLSCKSSQSVLYSAVEKNYLAWYQQKPGQAPRLLIYWASTRERGIPDRFSGSGSGTDFTLTISRLEPEDFAVYYCKQYLSSWTFGQG
~150 RMF	~20 fold	70.8%	VM1003 (antibody, V domains shown, Humanized antibody with human constant region; also called anti-CD22 Mab clone VM1003) VH: EVQLVQSGAEVKKPGATVKISCKVSGYVFTSYWLHWIRQSPSRGLEWLGYINPRNDYTEYNRIFKGRFVFSLDTSVSTAYLQICSLKAEDTAVYYCARRGITTFYWGQG VL: EIVLTQSPATLSLSPGERATLSCKSSQSVLYSAVEKNYLAWYQQKPGQAPRLLIYWASTRERGIPDRFSGSGSGTDFTLTISRLEPEDFAVYYCKQYLSSWTFGQG
